The text below walks through data of publication PMC12095048 (Oncogene, 2025).

The target in assay [1] is His-CHK2 (WT), full length (UniProt O96017 1-543). Description: pull-down.
Assay [2] deals with His-HIF-1α (WT), full length (UniProt Q16665 1-826). Kind of assay: pull-down.
Sequence of His-HIF-1α (WT), full length (Q16665 whole entry): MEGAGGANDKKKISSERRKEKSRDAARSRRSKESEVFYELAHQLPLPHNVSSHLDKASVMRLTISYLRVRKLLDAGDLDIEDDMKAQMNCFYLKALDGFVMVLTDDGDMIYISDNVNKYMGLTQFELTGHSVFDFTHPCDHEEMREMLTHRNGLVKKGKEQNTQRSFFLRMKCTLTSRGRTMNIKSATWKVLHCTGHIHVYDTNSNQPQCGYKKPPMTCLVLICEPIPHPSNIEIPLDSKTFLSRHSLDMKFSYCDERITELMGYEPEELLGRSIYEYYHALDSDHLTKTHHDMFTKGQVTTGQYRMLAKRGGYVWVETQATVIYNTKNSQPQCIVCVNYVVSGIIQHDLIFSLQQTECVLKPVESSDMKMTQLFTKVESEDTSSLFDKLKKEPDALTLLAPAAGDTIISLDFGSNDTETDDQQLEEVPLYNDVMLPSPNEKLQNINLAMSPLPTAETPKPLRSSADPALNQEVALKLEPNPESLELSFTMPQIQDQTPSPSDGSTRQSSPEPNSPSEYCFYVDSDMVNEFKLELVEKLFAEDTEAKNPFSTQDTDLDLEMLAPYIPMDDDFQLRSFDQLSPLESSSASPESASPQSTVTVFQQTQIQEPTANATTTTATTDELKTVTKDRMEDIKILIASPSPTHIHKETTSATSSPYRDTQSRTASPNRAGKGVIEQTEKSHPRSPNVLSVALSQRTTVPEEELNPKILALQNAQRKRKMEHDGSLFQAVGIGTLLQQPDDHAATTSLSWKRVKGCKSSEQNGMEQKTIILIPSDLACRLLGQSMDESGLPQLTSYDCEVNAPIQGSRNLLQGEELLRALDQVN

B1: GST-HIF-1α (aa 400–575) (domain or fragment, UniProt Q16665 400-575, looked up)
chain: LAPAAGDTIISLDFGSNDTETDDQQLEEVPLYNDVMLPSPNEKLQNINLAMSPLPTAETPKPLRSSADPALNQEVALKLEPNPESLELSFTMPQIQDQTPSPSDGSTRQSSPEPNSPSEYCFYVDSDMVNEFKLELVEKLFAEDTEAKNPFSTQDTDLDLEMLAPYIPMDDDFQLR
For B1, the binding result in assay [1] is “binds”.

B2: GST-CHK2 (aa 1–193) (domain or fragment, UniProt O96017 1-193, looked up)
chain: MSRESDVEAQQSHGSSACSQPHGSVTQSQGSSSQSQGISSSSTSTMPNSSQSSHSSSGTLSSLETVSTQELYSIPEDQEPEDQEPEEPTPAPWARLWALQDGFANLECVNDNYWFGRDKSCEYCFDEPLLKRTDKYRTYSKKHFRIFREVGPKNSYIAYIEDHSGNGTFVNTELVGKGKRRPLNNNSEIALSL
In the case of B2, the binding result in assay [2] is listed as “binds”.

B3: GST-HIF-1α (aa 81–200) (domain or fragment)
chain: not shown
Turning to B3, the binding result in assay [1] is recorded as “binds”.
